Patent US20100291682, “SYSTEM FOR TRANSPOSING HYPERACTIVE RECOMBINANT DERIVATIVES OF MOS-1 TRANSPOSON” (published 2010)

Assays:
Experiment in all cases: cell_activity; 3T40 transposition in E. coli T5 vs 3T3/WT
Settings in all cases: chain copies: 2
Mos-1 transposase TY = target: T1, Mos-1 transposase TY (Drosophila mauritiana, UniProt Q7JQ07 SEQ:1-345, T216A,Y237C)
T1 sequence: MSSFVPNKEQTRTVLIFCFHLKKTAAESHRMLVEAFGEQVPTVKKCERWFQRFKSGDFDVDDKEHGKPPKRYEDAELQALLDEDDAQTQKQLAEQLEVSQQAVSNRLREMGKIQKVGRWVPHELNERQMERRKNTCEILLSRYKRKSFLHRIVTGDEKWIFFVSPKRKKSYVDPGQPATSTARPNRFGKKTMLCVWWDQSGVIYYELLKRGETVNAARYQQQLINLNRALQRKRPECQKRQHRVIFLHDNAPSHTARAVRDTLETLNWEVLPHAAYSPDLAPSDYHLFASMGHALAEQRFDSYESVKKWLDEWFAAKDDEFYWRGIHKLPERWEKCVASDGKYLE
Procedure: (§1) Escherichia coli JM109 bacteria were co-transformed with the pBC 3T3 plasmid (comprising a transposition reporter 2 ITR 3′ mariner-like element and the chloramphenicol resistance gene) and with the inducible vector encoding for the transposase (pKK-Tnp or pMal-Tnp) comprising the ampicillin resistance gene. The bacteria selection was performed on ampicillin (100 μg/ml) and chloramphenicol in order to verify the presence of the two plasmids.
(§2) The JM109 bacteria containing both the pBC 3T3 plasmid and the pKK-Tnp (or pMalC2X-Tnp) plasmid were placed in culture for 1 hr at 37° C. in 250 μl of LB. This inoculum was then poured into 5 ml of LB supplemented with 1 mM IPTG. The culture was titrated on LB plates (100 μl of a 1/1000 dilution) and on LB-Tet plates (12.5 μg/ml) (250 μl of the non-diluted culture). The culture induced by IPTG was then cultured for 5 hours at 32° C. (optimal temperature of transposase) under stirring (250 rpm). The bacterial suspension was then titrated on LB plates (100 μl of a 1/250,000 dilution) and on LB-tet plates (100 μl of the undiluted bacterial suspension). The plates were placed at 37° C. overnight. The following day, the colonies were counted on LB and LB-Tet plates, and the transposition frequency (equal to the number of tetracycline bacteria over the number of bacterial per 1 ml of undiluted bacterial suspension) was calculated.
(§3) In order to evaluate the transposition efficiency of systems associating a hyperactive transposase and a pseudo-transposon that is also hyperactive, various combinations were tested in the transposition test in bacteria described in part I, paragraph I-B above.

Mos-1 transposase FQET = target: T2, Mos-1 transposase FQET (Drosophila mauritiana, UniProt Q7JQ07 SEQ:1-345, F53Y,Q91R,E137K,T216A)
T2 sequence: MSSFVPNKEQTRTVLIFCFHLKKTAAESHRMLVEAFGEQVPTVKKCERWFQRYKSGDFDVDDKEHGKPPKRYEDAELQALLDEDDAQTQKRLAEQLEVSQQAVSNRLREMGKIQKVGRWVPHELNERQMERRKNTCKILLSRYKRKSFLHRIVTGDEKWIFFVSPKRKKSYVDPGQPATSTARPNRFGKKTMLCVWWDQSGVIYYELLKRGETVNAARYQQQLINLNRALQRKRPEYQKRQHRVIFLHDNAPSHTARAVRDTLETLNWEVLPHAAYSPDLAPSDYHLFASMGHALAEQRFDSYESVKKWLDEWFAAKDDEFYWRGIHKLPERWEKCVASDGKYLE
Procedure: as §1, §2, §3

Mos-1 transposase FQ = target: T3, Mos-1 transposase FQ (Drosophila mauritiana, UniProt Q7JQ07 SEQ:1-345, F53Y,Q91R)
T3 sequence: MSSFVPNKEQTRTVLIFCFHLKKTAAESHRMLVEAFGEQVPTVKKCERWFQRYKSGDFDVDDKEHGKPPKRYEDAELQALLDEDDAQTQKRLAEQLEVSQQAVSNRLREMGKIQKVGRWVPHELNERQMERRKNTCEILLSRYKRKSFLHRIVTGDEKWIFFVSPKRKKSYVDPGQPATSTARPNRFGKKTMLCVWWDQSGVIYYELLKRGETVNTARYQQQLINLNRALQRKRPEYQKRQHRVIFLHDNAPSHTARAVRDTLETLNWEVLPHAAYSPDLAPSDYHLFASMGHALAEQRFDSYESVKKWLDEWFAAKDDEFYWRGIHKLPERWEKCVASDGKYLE
Procedure: as §1, §2, §3

Mos-1 transposase ET = target: T4, Mos-1 transposase ET (Drosophila mauritiana, UniProt Q7JQ07 SEQ:1-345, E137K,T216A)
T4 sequence: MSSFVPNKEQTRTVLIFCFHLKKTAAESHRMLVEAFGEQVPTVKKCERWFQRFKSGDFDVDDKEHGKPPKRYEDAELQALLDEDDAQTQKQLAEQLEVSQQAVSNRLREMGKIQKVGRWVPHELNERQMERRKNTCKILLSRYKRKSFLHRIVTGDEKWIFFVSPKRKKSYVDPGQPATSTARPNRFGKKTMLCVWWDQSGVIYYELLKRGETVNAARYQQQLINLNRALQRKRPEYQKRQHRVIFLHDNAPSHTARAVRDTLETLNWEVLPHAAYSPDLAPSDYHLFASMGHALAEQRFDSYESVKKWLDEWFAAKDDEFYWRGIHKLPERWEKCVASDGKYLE
Procedure: as §1, §2, §3

B1: ITR40 (dsDNA)
DNA 1: TCAGGTGTACAAGTATGTAATGTCGTTA
DNA 2: TAACGACATTACATACTTGTACACCTGA
Q: What does the source list for B1?
A: activity (Mos-1 transposase TY): 36.2 fold; activity (Mos-1 transposase FQET): 3.7 fold; activity (Mos-1 transposase FQ): 2.5 fold; activity (Mos-1 transposase ET): 8.9 fold
